From PMC4497409 (2015)

Target: hFZD7 (Homo sapiens (Human), UniProt O75084)
Assay: SPR equilibrium, Norrin immobilised, monomeric CRD analyte

B1: Norrin (protein)
chain 1: DSDPRRCMRHHYVDSISHPLYKCSSKMVLLARCEGHCSQASRSEPLVSFSTVLKQPFRSSCHCCRPQTSKLKALRLRCSGGMRLTATYRYILSCHCEECNS
chain 2: DSDPRRCMRHHYVDSISHPLYKCSSKMVLLARCEGHCSQASRSEPLVSFSTVLKQPFRSSCHCCRPQTSKLKALRLRCSGGMRLTATYRYILSCHCEECNS
Q: How did the Kd turn out when B1 was run?
A: > 100 µM
